Assay results published in the supplement of paper PMC7125110.
± gives the standard error. Fewer inactive variants are shown than the library holds.

B1: glmS ribozyme (parent)
chain: AUAAAAGCGCCAGAACUACAGAAAUGUAGUUGACGAGGAGGAGGUUUAUCGAAUUUUCGGCGGAUGCCUCCAAA

Variants of: B1
Experiment: self-cleavage kobs at 2500 uM GlcN6P; higher = faster cleavage; RNA array
Conditions: with glucosamine-6-phosphate
Method in brief: (§1)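 E. coli RNA polymerase transcribed barcoded ribozyme variants in situ on sequenced MiSeq chips, which were tracked via a hybridised Cy3 probe at 37 °C. Tiles were imaged over ~14 h after glucosamine-6-phosphate (40 μM to 10 mM) in HEPES/KCl/Mg(OAc)2 buffer was flowed in. Normalised per-tile medians were fit to one- or two-exponential decays for kobs, and kcat and KM came from weighted Michaelis–Menten fits.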

| Variant | self-cleavage kobs at 2500 uM GlcN6P |
| --- | --- |
| C16A U31A A39G U57C G60U | < 1e-05 s⁻¹ |
| G32A G35A C61A G63A C70U | < 1e-05 s⁻¹ |
| A15C G40U A42C | < 1e-05 s⁻¹ |
| C16G G29U A39U G51U C71U | < 1e-05 s⁻¹ |
| G29U U30A A33G G37U | < 1e-05 s⁻¹ |
| G26A U30C | 0.000125 ± 3.9e-05 s⁻¹ |
| A15C G32C U55C U57C U65C | < 1e-05 s⁻¹ |
| A15G G37C U57G C67U | < 1e-05 s⁻¹ |
| G29U U54A C58A | 0.000128 ± 3.8e-05 s⁻¹ |
| U31A C34G A48G | < 1e-05 s⁻¹ |
| G29A G38U G40A A42C | < 1e-05 s⁻¹ |
| U31C G35A A48C | < 1e-05 s⁻¹ |
| U30G A33C G66U | < 1e-05 s⁻¹ |
| G29A G41U G62C | < 1e-05 s⁻¹ |
| A14C U31A A42C A48G C71G | < 1e-05 s⁻¹ |
| U30G G43U U47A U56A | < 1e-05 s⁻¹ |
| G32A C58U C68G | 0.000103 ± 3.5e-05 s⁻¹ |
| A14G U30C A39C U54A | 0.000132 ± 2.6e-05 s⁻¹ |
| A15G G29A A36G | < 1e-05 s⁻¹ |
| C16U G37U G41A | < 1e-05 s⁻¹ |

| Variant | self-cleavage kobs at 2500 uM GlcN6P |
| --- | --- |
| C16U G41C G44C G59C | < 1e-05 s⁻¹ |
| U31C A48G G63C C67U | < 1e-05 s⁻¹ |
| A15G U57A C68A | 5.07e-05 ± 1.9e-05 s⁻¹ |
| G26U G32U U55G | 0.000168 ± 8.2e-05 s⁻¹ |
| U31A G32A A64G | 0.000169 ± 4.6e-05 s⁻¹ |
| A14U G66A C70U | 0.00125 ± 0.00031 s⁻¹ |
| G26U A33U | 0.000111 ± 2.1e-05 s⁻¹ |
| C16G G37U A42G | < 1e-05 s⁻¹ |
| U31C U55A G63C U69G | 0.000106 ± 3.8e-05 s⁻¹ |
| A15U C16U U45A | 0.00158 ± 0.00051 s⁻¹ |
| A15G U46G G51C U55C G59A G63U | < 1e-05 s⁻¹ |
| A14U U30A C71G | 5.1e-05 ± 1.2e-05 s⁻¹ |
| A15C G37A A39G | 0.000365 ± 0.00012 s⁻¹ |
| G29C G40A A42U G60U C61U | < 1e-05 s⁻¹ |
| A15U G29U U55A | 0.00225 ± 0.00062 s⁻¹ |
| C16U U57G U65A C70A | 0.000271 ± 0.00013 s⁻¹ |
| G26U C67U | 0.000381 ± 0.00017 s⁻¹ |
| G29A G63A | < 1e-05 s⁻¹ |
| U31C G40U U46G | 3.61e-05 ± 1.5e-05 s⁻¹ |
| A14C U45G C68U | 3.4e-05 ± 1.6e-05 s⁻¹ |

Variants of: B1
Experiment: self-cleavage kobs at 10000 uM GlcN6P; higher = faster cleavage; RNA array
Conditions: with glucosamine-6-phosphate
Method in brief: as §1

| Variant | self-cleavage kobs at 10000 uM GlcN6P |
| --- | --- |
| A15C G32C U55C U57C U65C | < 1e-05 s⁻¹ |
| G29A G38U G40A A42C | < 1e-05 s⁻¹ |
| A14G U30C A39C U54A | 0.000156 ± 2.5e-05 s⁻¹ |
| A15G G29A A36G | < 1e-05 s⁻¹ |
| C16U G37U G41A | < 1e-05 s⁻¹ |
